Laboratory results taken from PMC9599711.

Target: cardiac troponin T (cTn-T) (UniProt P45379)
Assay: electrochemical aptasensor
Conditions: thiol (end not stated); Protein in 10 mM PBS pH 7.4, 30 min on BSA-blocked electrode, PBS wash; read in 0.10 M KCl with 5.0 mM K3/K4[Fe(CN)6]; temperature not stated

CGTGCAGTACGCCAACCTTTCTCATGCGCTGCCCCTCTTA [cTn-I aptamer (Jo et al.)]
binding signal (% normalized response): < 5
